Biological target: C276A USP2 catalytic core (inactive active-site mutant) (human) (UniProt O75604)
Test: stopped-flow fluorescence

C276A USP2 catalytic core (inactive active-site mutant) (human), sequence (O75604 259-605 C276A): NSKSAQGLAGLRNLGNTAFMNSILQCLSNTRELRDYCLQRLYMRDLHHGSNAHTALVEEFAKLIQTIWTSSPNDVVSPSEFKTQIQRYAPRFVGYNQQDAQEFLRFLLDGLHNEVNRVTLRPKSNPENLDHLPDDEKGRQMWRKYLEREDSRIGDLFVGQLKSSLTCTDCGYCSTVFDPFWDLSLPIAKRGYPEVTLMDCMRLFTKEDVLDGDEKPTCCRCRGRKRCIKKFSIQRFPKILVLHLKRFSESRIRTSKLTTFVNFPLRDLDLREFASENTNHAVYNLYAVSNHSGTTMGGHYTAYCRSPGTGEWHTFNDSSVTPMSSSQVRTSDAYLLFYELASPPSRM

- k1 (first step, association): 230000 M⁻¹ s⁻¹
- k−1 (first step, dissociation): 0.06 s⁻¹
Substance: native K48-linked diubiquitin (from UniProt P0CG48 1-76)

Reference: paper PMC3617563
